# Assay results: patent US20210317499A1
# Target: His-tagged FcγRIIIa recombinant protein (UniProt P08637)
# Assay: SPR (Biacore X100); His-tagged FcγRIIIa captured on anti-His antibody CM5 chip, antibody as analyte; 1:1 Langmuir fit
# Chain of UniProt P08637 (P08637 17-208 limits assumed): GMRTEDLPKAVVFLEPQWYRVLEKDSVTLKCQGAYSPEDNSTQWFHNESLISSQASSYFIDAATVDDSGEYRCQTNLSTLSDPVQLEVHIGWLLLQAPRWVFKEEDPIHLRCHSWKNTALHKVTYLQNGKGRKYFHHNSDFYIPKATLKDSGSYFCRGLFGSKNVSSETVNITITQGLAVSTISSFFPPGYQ
substance,measurement,value
"GAZYVA (obinutuzumab), commercial afucosylated anti-CD20 antibody",Kd,39.9 nM
same,koff,0.0069 s⁻¹
same,kon,173000 M⁻¹ s⁻¹
